The text below walks through data of patent US20190071490A1 (BETH ISRAEL DEACONESS MEDICAL CENTER, published 2019).

Changes are numbered by the printed parent chain. Numbers in names are those of the source.

What is called Kd is a measure of binding affinity in units of concentration. For orientation: koff means a measure of how fast the partners let go of each other. Read a high koff as a short-lived complex.

The labels stand for the following.
T1: human α-CGRP 1-37 (WT) (human, C-terminal amide; N-terminal biotin when captured on the SA chip; 125I-labelled in the radioligand assay)
T1 construct: also called α-human
T1 peptide: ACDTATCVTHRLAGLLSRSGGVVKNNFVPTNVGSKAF

T2: rat α-CGRP (1-37) (rat, C-terminal amide; N-terminal biotin when captured on the SA chip)
T2 construct: also called rat α (1-37); α-rat
T2 peptide: T1 peptide with A1S, D3N, N25D, K35E

B1: G1 variant M51 Fab (Fab, V domains shown)
VH: EVQLVESGGGLVQPGGSLRLSCAASGFTFSNYWISWVRQAPGKGLEWVAEIRSKSDGSATHYAEAVKGRFTISRDNAKNSLYLQMNSLRAEDTAVYYCTVYFDYGLAIQNYWGQGTLVTVSS
VL: EIVLTQSPATLSLSPGERATLSCKASKNVTTYVSWYQQKPGQAPRLLIYGASNRYIGIPARFSGSGSGTDFTLTISSLEPEDFAVYYCSQSYNYPYTFGQGTKLEIK
notes: Fab; constant domains as m1; printed L561 read as L56I
B2: G1 variant M70 Fab (Fab, V domains shown)
VH: B1 VH with G57S
VL: B1 VL with T30G
notes: as for B1
B3: G1 variant M69 Fab (Fab, V domains shown)
VH: B1 VH with G57N, S58E
VL: B1 VL with T30G
notes: as for B1
B4: G1 variant M58 Fab (Fab, V domains shown)
VH: B1 VH with G57N, S58I, H61F
VL: B1 VL with T30D, I56S
notes: Fab; constant domains as m1
B5: G1 variant M62 Fab (Fab, V domains shown)
VH: B1 VH with G57N, S58E
VL: B1 VL with T30G, A51H, I56T
notes: Fab; constant domains as m1
B6: G1 variant M71 Fab (Fab, V domains shown)
VH: B1 VH with G57Y
VL: B1 VL with T30G
notes: as for B1
B7: G1 variant M66 Fab (Fab, V domains shown)
VH: B1 VH with G57E
VL: B1 VL with T30G
notes: as for B1
B8: G1 variant M55 Fab (Fab, V domains shown)
VH: B1 VH with G57N, S58E, E64D
VL: B1 VL with T30A, I56S
notes: Fab; constant domains as m1
B9: G1 variant M56 Fab (Fab, V domains shown)
VH: B1 VH with G57N, H61F
VL: B1 VL with T30D, I56S
notes: Fab; constant domains as m1
B10: G1 variant M64 Fab (Fab, V domains shown)
VH: B1 VH with G57N, S58V
VL: B1 VL with T30G, G50A, I56L
notes: Fab; constant domains as m1
B11: G1 variant M61 Fab (Fab, V domains shown)
VH: B1 VH with K54Q, G57N, H61F
VL: B1 VL with T30G, A51H, I56L
notes: Fab; constant domains as m1
B12: G1 variant M53 Fab (Fab, V domains shown)
VH: B1 VH with G57N, S58G
VL: B1 VL
notes: as for B1
B13: G1 variant M57 Fab (Fab, V domains shown)
VH: B1 VH with G57N, S58E
VL: B1 VL with T30D, I56S
notes: Fab; constant domains as m1
B14: G1 variant M54 Fab (Fab, V domains shown)
VH: B1 VH with G57N, S58P
VL: B1 VL with T30A, G50A, I56L
notes: Fab; constant domains as m1
B15: G1 variant M60 Fab (Fab, V domains shown)
VH: B1 VH with G57N, S58R, H61F
VL: B1 VL with T30D, I56S
notes: Fab; constant domains as m1
B16: G1 variant M67 Fab (Fab, V domains shown)
VH: B1 VH with G57F
VL: B1 VL with T30G
notes: as for B1
B17: G1 variant M65 Fab (Fab, V domains shown)
VH: B1 VH with G57C
VL: B1 VL with T30G, G50A
notes: Fab; constant domains as m1
B18: G1 variant M59 Fab (Fab, V domains shown)
VH: B1 VH with G57N, S58N, H61F
VL: B1 VL with T30D, I56S
notes: Fab; constant domains as m1
B19: G1 variant M68 Fab (Fab, V domains shown)
VH: B1 VH with G57N, S58D, E64D
VL: B1 VL with T30G
notes: as for B1
B20: G1 variant M63 Fab (Fab, V domains shown)
VH: B1 VH with G57N, S58T
VL: B1 VL with T30G, G50A, I56L
notes: Fab; constant domains as m1
B21: G1 variant M52 Fab (Fab, V domains shown)
VH: B1 VH with G57N, S58A
VL: B1 VL
notes: as for B1

One assay has as its target T1, human α-CGRP 1-37 (WT). Put plainly: Biacore, 37°C, Fab over CGRP on SA chip. The essentials:
(§1)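 Fab analyte flowed over N-biotinylated CGRP captured at low density on a streptavidin chip in HBS-EP (pH 7.4), 1-min injections at 100 μL/min, at least 10 min dissociation.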
Turning to B1, the Kd came out at 0.82 nM and the koff was determined as 0.000131 s⁻¹.

Regarding B2, the Kd came to 3.49 nM and the koff worked out at 0.000559 s⁻¹.

Molecule B3 gave a Kd of 4.58 nM and a koff of 0.000733 s⁻¹.

In turn, B4 registered a Kd of 12.2 nM and a koff of 0.00195 s⁻¹.

Regarding B5, the Kd is 5.86 nM and the koff was 0.000557 s⁻¹.

In the case of B6, the equilibrium dissociation constant (Kd) is 8 nM and the koff was found to be 0.00128 s⁻¹.

Molecule B7 registered a dissociation constant Kd of 3.25 nM and a koff of 0.00052 s⁻¹.

Turning to B8, the Kd turned out to be 2.99 nM and the koff is 0.000478 s⁻¹.

As to B9, the affinity, expressed as Kd, was 2.99 nM and the koff came to 0.000479 s⁻¹.

As for B10, the Kd was determined as 8.25 nM and the koff is 0.00132 s⁻¹.

On to B11, for which the affinity, expressed as Kd, was 2.87 nM and the koff is 0.000459 s⁻¹.

B12 displayed a Kd of 2.34 nM and a koff of 0.000374 s⁻¹.

As to B13, the Kd was 3.08 nM and the koff turned out to be 0.000322 s⁻¹.

B14 showed a Kd of 11.2 nM and a koff of 0.00179 s⁻¹.

B15 had a Kd of 5.69 nM and an off-rate constant (koff) of 0.000911 s⁻¹.

Turning to B16, the Kd was determined as 5.13 nM and the koff came to 0.00082 s⁻¹.

In turn, B17 registered a Kd of 5.02 nM and a koff of 0.000803 s⁻¹.

With B18, the affinity, expressed as Kd, was 3.28 nM and the koff worked out at 0.000524 s⁻¹.

In turn, B19 returned a Kd of 2.68 nM and a koff of 0.000428 s⁻¹.

As for B20, the Kd was 9.38 nM and the koff is 0.0015 s⁻¹.

For the molecule B21, the dissociation constant Kd was 1.76 nM and the koff worked out at 0.000281 s⁻¹.

The next assay addresses T2, rat α-CGRP (1-37). Put plainly: Biacore, 37°C, Fab over CGRP on SA chip. The method in brief: as §1
As for B1, the Kd was 65.6 nM and the koff was 0.00118 s⁻¹.

Molecule B2 gave a Kd of 337 nM and an off-rate constant (koff) of 0.00607 s⁻¹.

Molecule B3 returned a Kd of 101 nM and a koff of 0.00181 s⁻¹.

Regarding B4, the binding result was “no binding”.

With B5, the affinity, expressed as Kd, was 242 nM and the koff is 0.00575 s⁻¹.

In turn, B6 gave a Kd of 118 nM and a koff of 0.00212 s⁻¹.

The molecule B7 had a Kd of 284 nM and a koff of 0.00511 s⁻¹.

In the case of B8, binding was characterised by a dissociation constant (Kd) of 325 nM and the koff worked out at 0.00585 s⁻¹.

B9 returned a Kd of 519 nM and a koff of 0.00935 s⁻¹.

Molecule B10 showed a Kd of 1300 nM and a koff of 0.0234 s⁻¹.

Molecule B11 gave a Kd of 289 nM and a koff of 0.00521 s⁻¹.

In the case of B12, binding was characterised by a dissociation constant (Kd) of 106 nM and the koff worked out at 0.00191 s⁻¹.

Molecule B13 came in with a Kd of 1200 nM and a koff of 0.0104 s⁻¹.

Consider B14, for which the affinity, expressed as Kd, was 120 nM and the koff came to 0.00216 s⁻¹.

Take B15: the Kd is 1510 nM and the koff is 0.0272 s⁻¹.

For B16, the Kd worked out at 95 nM and the koff amounted to 0.00171 s⁻¹.

Consider B17, for which the Kd was determined as 226 nM and the koff came out at 0.00407 s⁻¹.

B18: the Kd is 683 nM and the koff was found to be 0.0123 s⁻¹.

For the molecule B19, the Kd is 376 nM and the koff turned out to be 0.00676 s⁻¹.

The molecule B20 yielded a Kd of 147 nM and a koff of 0.00265 s⁻¹.

Consider B21, for which binding was characterised by a dissociation constant (Kd) of 127 nM and the koff was determined as 0.00229 s⁻¹.
